# Data from IntAct's records for PubMed 30285739.
# B1: WW domain-containing oxidoreductase (Homo sapiens), Q9NZC7 (parent)
# chain: MAALRYAGLDDTDSEDELPPGWEERTTKDGWVYYANHTEEKTQWEHPKTGKRKRVAGDLPYGWEQETDENGQVFFVDHINKRTTYLDPRLAFTVDDNPTKPTTRQRYDGSTTAMEILQGRDFTGKVVVVTGANSGIGFETAKSFALHGAHVILACRNMARASEAVSRILEEWHKAKVEAMTLDLALLRSVQHFAEAFKAKNVPLHVLVCNAATFALPWSLTKDGLETTFQVNHLGHFYLVQLLQDVLCRSAPARVIVVSSESHRFTDINDSLGKLDFSRLSPTKNDYWAMLAYNRSKLCNILFSNELHRRLSPRGVTSNAVHPGNMMYSNIHRSWWVYTLLFTLARPFTKSMQQGAATTVYCAAVPELEGLGGMYFNNCCRCMPSPEAQSEETARTLWALSERLIQERLGSQSG
# partner: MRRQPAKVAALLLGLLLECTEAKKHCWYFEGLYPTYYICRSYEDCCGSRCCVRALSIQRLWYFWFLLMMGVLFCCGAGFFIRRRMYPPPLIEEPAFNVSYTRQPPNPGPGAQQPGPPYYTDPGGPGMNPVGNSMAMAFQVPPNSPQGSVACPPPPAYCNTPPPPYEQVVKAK
# B2: WW domain binding protein VOPP1 (Homo sapiens), Q96AW1 (parent)
# chain: B1 partner
# partner: B1 chain
# Variants of: B1
# Details: with vopp1_human VOPP1, Q96AW1
row,effect of a mutation on the interaction,Variant
1,disrupting interaction strength,MAALRYAGLDDTDSEDELPPGWEERTTKDGWVRYANHTEEKTQWEHPKTGKRKRVAGDLPYGWEQETDENGQVFFVDHINKRTTYLDPRLAFTVDDNPTKPTTRQRYDGSTTAMEILQGRDFTGKVVVVTGANSGIGFETAKSFALHGAHVILACRNMARASEAVSRILEEWHKAKVEAMTLDLALLRSVQHFAEAFKAKNVPLHVLVCNAATFALPWSLTKDGLETTFQVNHLGHFYLVQLLQDVLCRSAPARVIVVSSESHRFTDINDSLGKLDFSRLSPTKNDYWAMLAYNRSKLCNILFSNELHRRLSPRGVTSNAVHPGNMMYSNIHRSWWVYTLLFTLARPFTKSMQQGAATTVYCAAVPELEGLGGMYFNNCCRCMPSPEAQSEETARTLWALSERLIQERLGSQSG [Y33R]

# Variants of: B2
# Details: with wwox_human WWOX, Q9NZC7
row,effect of a mutation on the interaction,Variant
1,with no effect,MRRQPAKVAALLLGLLLECTEAKKHCWYFEGLYPTYYICRSYEDCCGSRCCVRALSIQRLWYFWFLLMMGVLFCCGAGFFIRRRMYPPPLIEEPAFNVSYTRQPPNPGPGAQQPGPPYATDPGGPGMNPVGNSMAMAFQVPPNSPQGSVACPPPPAYCNTPPPPYEQVVKAK [Y119A]
2,decreasing interaction strength,MRRQPAKVAALLLGLLLECTEAKKHCWYFEGLYPTYYICRSYEDCCGSRCCVRALSIQRLWYFWFLLMMGVLFCCGAGFFIRRRMYPPPLIEEPAFNVSYTRQPPNPGPGAQQPGPPYYTDPGGPGMNPVGNSMAMAFQVPPNSPQGSVACPPPPAYCNTPPPPAEQVVKAK [Y165A]
3,decreasing interaction strength,MRRQPAKVAALLLGLLLECTEAKKHCWYFEGLYPTYYICRSYEDCCGSRCCVRALSIQRLWYFWFLLMMGVLFCCGAGFFIRRRMYPPPLIEEPAFNVSYTRQPPNPGPGAQQPGPPYYTDPGGPGMNPVGNSMAMAFQVPPNSPQGSVACPPPPAACNTPPPPYEQVVKAK [Y157A]

# Variants of: B2
# Details: with wwox_human WWOX
row,effect of a mutation on the interaction,Variant
1,disrupting interaction strength,MRRQPAKVAALLLGLLLECTEAKKHCWYFEGLYPTYYICRSYEDCCGSRCCVRALSIQRLWYFWFLLMMGVLFCCGAGFFIRRRMYPPPLIEEPAFNVSYTRQPPNPGPGAQQPGPPYYTDPGGPGMNPVGNSMAMAFQVPPNSPQGSVACPPPPAYCNTPPPPAEQVVKAK [Y165A]
